Assay results as given in patent US20230257472A1.

Target: His-tagged CD70 protein extracellular domain (His-TNC-CD70) (human)
Assay: phage ELISA, 2 ug/mL His-TNC-CD70 coated, anti-M13-HRP

Sequence of His-tagged CD70 protein extracellular domain (His-TNC-CD70) (human) (chain, as listed by the source limits assumed): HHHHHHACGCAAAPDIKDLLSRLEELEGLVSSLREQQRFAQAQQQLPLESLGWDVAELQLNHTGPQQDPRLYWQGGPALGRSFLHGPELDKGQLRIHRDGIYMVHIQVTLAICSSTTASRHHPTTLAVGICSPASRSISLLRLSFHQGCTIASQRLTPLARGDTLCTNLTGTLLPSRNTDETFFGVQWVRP

B1: F4 phage display single-chain antibody (scFv, part only; not given: scFv linker, phage partner, tag, V domains shown, not shown: another chain or arm of the molecule; large carriers; small tags and cut ends)
VH: QVQLKQSGAELVKPGASVKMSCKASGDTFPRYNMHWLKQTPGQGLEWIGAIFPGNGETSYNQNFKGKATLTADKSSSTAYMQLNSLTSEDSAVYYCARNSYYDYAWFTYWGQGTLVTVSA
VL: DIVMTQSPASLDVSLGQRATISCRASKSVSSSGYSFMHWYQQKPGQPPKLLISLASNLESGVPARFSGSGSGTDFTLTIYPVEEEDAATYYCQHSREFPPTFGSGTKLEIK
Reading at OD450 nm of microplate reader: 1.09 OD450

B2: B7 phage display single-chain antibody (scFv, part only; not given: linker; VH end may be cut, part only)
scFv, part: QIQLVQSGPELKKPGETVKISCKTSGYTFTNYGMNWVRQAPGKGLKWMGWINTYTGEPTYADDFKGRFAFSLETSAGTAYLQINNLENEDTATYFCARGDSFTTEILRNWYFDVWGAGTTDIQMTQTPASLSASVGETVTITCGASENIYGALNWYQRKQGKSPQLLIYGATNLADGMSSRFSGSGSGRQYSLKISSLHPDDVATYYCQNVLSTPWTFGGGTKLEMK
Reading at OD450 nm of microplate reader: 1.97 OD450

B3: B1 phage display single-chain antibody (scFv, part only; not given: scFv linker, phage partner, tag, V domains shown, not shown: another chain or arm of the molecule; large carriers; small tags and cut ends)
VH: QVQMQQSGAELVKPGASVMMSCKASGYTFTTYNIHWIKQTPGQGLEWIGDIYPGNGDASYNQKFRDRATLTADRSSSTAYLQLSSLTSEDSAIYYCATFSRFDGWFAYWGQGTLVTVSA
VL: DIVMSQSPASLAVSLGQRATISCRASRSVSTSGYSYMHWYQQKPGQPPKLLIYLASNLESGVPARFSGSGSGTNFTLNIHPVEEEDAATYYCQHSRELPYTFGGGTKLEIK
Reading at OD450 nm of microplate reader: 1.16 OD450
